Assay results reported in paper PMC3994186 (Oncogene, 2013).

T1: His-tagged RAD51C (human, UniProt O43502 1-376)
T1 sequence: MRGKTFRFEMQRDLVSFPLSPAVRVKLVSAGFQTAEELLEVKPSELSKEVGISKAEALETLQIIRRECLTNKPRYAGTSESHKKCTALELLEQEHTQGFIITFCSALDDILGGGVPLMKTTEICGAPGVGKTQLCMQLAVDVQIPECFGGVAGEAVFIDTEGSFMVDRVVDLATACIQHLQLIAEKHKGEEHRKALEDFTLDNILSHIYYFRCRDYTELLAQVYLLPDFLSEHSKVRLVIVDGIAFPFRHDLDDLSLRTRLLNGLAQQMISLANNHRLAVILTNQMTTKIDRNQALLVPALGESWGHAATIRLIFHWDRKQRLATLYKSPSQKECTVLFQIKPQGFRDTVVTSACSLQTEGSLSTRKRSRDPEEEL


Target: T1, His-tagged RAD51C
Experiment: pull-down

binding result	Binder
binds	MBP fused to the WD40 domain of PALB2 (amino acids 859-1186), wild type (domain or fragment) SELKNPSGSCSVDVSAMFWERAGCKEPCIITACEDVVSLWKALDAWQWEKLYTWHFAEVPVLQIVPVPDVYNLVCVALGNLEIREIRALFCSSDDESEKQVLLKSGNIKAVLGLTKRRLVSSSGTLSDQQVEVMTFAEDGGGKENQFLMPPEETILTFAEVQGMQEALLGTTIMNNIVIWNLKTGQLLKKMHIDDSYQASVCHKAYSEMGLLFIVLSHPCAKESESLRSPVFQLIVINPKTTLSVGVMLYCLPPGQAGRFLEGDVKDHCAAAILTSGTIAIWDLLLGQCTALLPPVSDQHWSFVKWSGTDSHLLAGQKDGNIFVYHYS
binds	MBP-PALB2 WD40 domain T1030I (domain or fragment) SELKNPSGSCSVDVSAMFWERAGCKEPCIITACEDVVSLWKALDAWQWEKLYTWHFAEVPVLQIVPVPDVYNLVCVALGNLEIREIRALFCSSDDESEKQVLLKSGNIKAVLGLTKRRLVSSSGTLSDQQVEVMTFAEDGGGKENQFLMPPEETILTFAEVQGMQEALLGTIIMNNIVIWNLKTGQLLKKMHIDDSYQASVCHKAYSEMGLLFIVLSHPCAKESESLRSPVFQLIVINPKTTLSVGVMLYCLPPGQAGRFLEGDVKDHCAAAILTSGTIAIWDLLLGQCTALLPPVSDQHWSFVKWSGTDSHLLAGQKDGNIFVYHYS
binds	MBP-PALB2 WD40 domain L939W (domain or fragment) SELKNPSGSCSVDVSAMFWERAGCKEPCIITACEDVVSLWKALDAWQWEKLYTWHFAEVPVLQIVPVPDVYNLVCVALGNWEIREIRALFCSSDDESEKQVLLKSGNIKAVLGLTKRRLVSSSGTLSDQQVEVMTFAEDGGGKENQFLMPPEETILTFAEVQGMQEALLGTTIMNNIVIWNLKTGQLLKKMHIDDSYQASVCHKAYSEMGLLFIVLSHPCAKESESLRSPVFQLIVINPKTTLSVGVMLYCLPPGQAGRFLEGDVKDHCAAAILTSGTIAIWDLLLGQCTALLPPVSDQHWSFVKWSGTDSHLLAGQKDGNIFVYHYS
